Measured values reported in US20220363718A1.
*1 amine or outer side, *2 acyl side, *3 side chain or, on linkers, in order; H or OH if unused. Bridges are numbered along the chain shown (N, C = ends). [ ]: non-standard residue; d: D form. TATA = O=C(CC[*:1])N1CN(C(=O)CC[*:2])CN(C(=O)CC[*:3])C1; Trp(1-Me) = Cn1cc(C[C@H](N)C(=O)O)c2ccccc21; Arg(Me2a) = CN(C)C(=N)NCCC[C@H](N)C(=O)O; Phe(4-F) = N[C@@H](Cc1ccc(F)cc1)C(=O)O; tBuAla = CC(C)(C)C[C@H](N)C(=O)O; NMeD = CN[C@@H](CC(=O)O)C(=O)O; NMeA = CN[C@@H](C)C(=O)O

Biological target: Biotinylated human TSLP (human)
Sequence (chain, as listed by the source limits assumed): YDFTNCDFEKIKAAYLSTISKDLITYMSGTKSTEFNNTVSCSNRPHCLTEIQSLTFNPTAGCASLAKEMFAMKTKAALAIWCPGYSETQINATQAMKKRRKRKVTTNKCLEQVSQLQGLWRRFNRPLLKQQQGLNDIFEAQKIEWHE
Test: SPR, biotinylated hTSLP on streptavidin chip

Binder | Kd [nM]
CQXLEDCXXGXC (not fully specified; N-term acetyl; CQ[TrpMe]LEDC[TrpMe][ADMA]G[4-FPhe]C as printed; 3 Cys on TATA) [Example 13] | 6
Ac-C[NMeA][Trp(1-Me)][tBuAla]Q[NMeD]C[Trp(1-Me)][Arg(Me2a)]G[Phe(4-F)]C-NH2 (linker 1-7-12 via TATA) [Example 5] | 2.7
